Earlier results as cited in patent US20140011241A1, “Method enabling isomerization process flows at lower pH, lower temperature, and in the presence of certain inhibiting compounds by using the xylose isomerase enzyme from the microorganism Fulvimarina pelagi” (priority 2011, published 2014).

Test system: xylose isomerase

B1: xylose isomerase from Thermus thermophilus: xylose isomerase from Thermus thermophilus and mutants derived from it (U.S. Pat. No. 6,475,768) (protein, UniProt P26997 1-387, looked up)
Xylose isomerase: MYEPKPEHRFTFGLWTVGNVGRDPFGDAVRERLDPVYVVHKLAELGAYGVNLHDEDLIPRGTPPQERDQIVRRFKKALDETGLKVPMVTANLFSDPAFKDGAFTSPDPWVRAYALRKSLETMDLGAELGAEIYVVWPGREGAEVEATGKARKVWDWVREALNFMAAYAEDQGYGYRFALEPKPNEPRGDIYFATVGSMLAFIHTLDRPERFGLNPEFAHETMAGLNFVHAVAQALDAGKLFHIDLNDQRMSRFDQDLRFGSENLKAAFFLVDLLESSGYQGPRHFDAHALRTEDEEGVWAFARGCMRTYLILKERAEAFREDPEVKELLAAYYQEDPAALALLGPYSREKAEALKRAELPLEAKRRRGYALERLDQLAVEYLLGVRG
activity at low temperature: very low
pH at which active: 6
